# From paper PMC12260524, “Identification of a VPS29 isoform with restricted association to Retriever and Retromer accessory proteins through autoinhibition” (Proceedings of the National Academy of Sciences of the …, 2025)
# Target: GST-VPS29C (human) (UniProt F8VXU5)
# Test: ITC; 300 μM peptide titrated into 10 μM GST-tagged VPS29C, 25 °C, 50 mM Tris-HCl pH 7.5, 200 mM NaCl, 2 mM β-mercaptoethanol; single-site model
substance,measurement,value
VPS35L 28 to 37 (from UniProt Q7Z3J2 28-37) (peptide),Kd,> 100 µM
